Results as given in patent publication US20230220399.
pKd: −log10 of the molar value. Like-named read-outs stand apart in the source and are kept apart here.

Tests used:
Settings in all cases: ELISA, SB18, 37 C
[1] = target: 4-1BB (TNFRSF9) (Homo sapiens) (UniProt Q07011)
[2] = target: human serum albumin (HSA) (Homo sapiens) (UniProt P02768)
[3] = target: PD-L1 (B7-H1) (Homo sapiens) (UniProt Q9NZQ7)
[4] = tested on: KRAS G12D G12D, P01116-2
[5] = Nap-dU at n (6) positions [5,10,11,12,18,20,22,24]
[6] = Nap-dU at n (6) positions [5,10,11,12,18,20,22,24,32]
[7] = Nap-dU at n (6) positions [Nap-dU at 24,31,33,36,39,40,43,52]
[8] = Nap-dU at n (6) positions [5,11,13,19,21,23,28]
[9] = Nap-dU at n (6) positions [5,11,13,19,21,23,28,36,38]
[10] = Nap-dU at n (6) positions [5,11,13,19,21,23,28,36,38,42-44]
[11] = Nap-dU at n (6) positions [5,11,13,19,21,23,28,36,38,42,43,44,45]
[12] = Nap-dU at n (6) positions [5,11,13,19,21,23,28,36,38,42-45,52,54]
[13] = Nap-dU at n (6) positions [5,11,13,19,21,23,28,36,37,39,44,45,50,52,54]
[14] = Nap-dU at n (6) positions [8,10-11,13,18-19,24,26,29]
[15] = Nap-dU at n (6) positions [8,10-11,13,18-19,24,26,29,36,39]
[16] = Nap-dU at n (6) positions [3,5-6,8,13-14,19,21,24]
[17] = Nap-dU at n (6) positions [5,7,9,14,22,24,28,29,30,31,38,40]
[18] = Nap-dU at n (6) positions [2,4,10,12,14,19,27,29,33,34,35,36,43,45]
[19] = Nap-dU at n (6) positions [4,9,13,19,26,27,28,30]
[20] = Nap-dU at n (6) positions [Nap-dU at 29,36,38,41,44,45,48,57]
[21] = Nap-dU at n (6) positions [16,25,27-28,30,35-36,41,43,46,53,56]
[22] = Nap-dU at n (6) positions [12,21,26,30,36,43,44,45,47,56]

Sequence of PD-L1 (B7-H1) (Homo sapiens) (Q9NZQ7 19-238): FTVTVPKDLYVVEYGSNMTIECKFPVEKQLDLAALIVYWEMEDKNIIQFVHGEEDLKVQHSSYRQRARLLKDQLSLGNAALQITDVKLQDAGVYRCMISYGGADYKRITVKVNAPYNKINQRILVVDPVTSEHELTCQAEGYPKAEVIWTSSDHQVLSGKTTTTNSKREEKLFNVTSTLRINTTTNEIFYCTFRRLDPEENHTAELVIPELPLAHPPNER
Sequence of 4-1BB (TNFRSF9) (Homo sapiens) (Q07011 24-186): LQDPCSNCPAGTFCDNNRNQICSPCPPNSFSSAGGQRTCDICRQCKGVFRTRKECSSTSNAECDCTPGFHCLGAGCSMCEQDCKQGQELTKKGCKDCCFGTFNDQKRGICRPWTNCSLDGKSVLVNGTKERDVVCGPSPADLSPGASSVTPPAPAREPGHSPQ

AACCTCGCCTTTACAACTATATCTGACGAAC [AB005]
pKd [1, 5]: 9.92 | pKd [2, 5]: 7.27

AACCTCGCCTTTACAACTATATCTGACGAACTAACA [AB004]
pKd [1, 6]: 10.30 | pKd [2, 6]: 6.99

ACCGTCTGCCTGACAACAACGAGTGCGAACTGTACTACTTGATAGAGACCCTCAGCCACACCACCAGCC [AP021]
pKd [2, 7]: 7.81 | pKd [3, 7]: 6.89

CAGGTCGAGCTGTACGCGTGTGTGACCTGAAGAC [AD043]
pKd [2, 8]: 8.38 | pKd [4, 8]: 6.58

CAGGTCGAGCTGTACGCGTGTGTGACCTGAAGACGTATA [AD044]
pKd [2, 9]: 8.53 | pKd [4, 9]: 5.80

CAGGTCGAGCTGTACGCGTGTGTGACCTGAAGACGTATAACTTT [AD045]
pKd [2, 10]: 9.14 | pKd [4, 10]: 7.70

CAGGTCGAGCTGTACGCGTGTGTGACCTGAAGACGTATAACTTTTACAG [AD046]
pKd [2, 11]: 9.19 | pKd [4, 11]: 8.27

CAGGTCGAGCTGTACGCGTGTGTGACCTGAAGACGTATAACTTTTACAGAATCTACA [AD032]
pKd [2, 12]: 9.17 | pKd [4, 12]: 7.81

CAGGTCGAGCTGTACGCGTGTGTGACCTGCCCCACTTCTGACATTAGACTGTGTAGA [AD034]
pKd [2, 13]: 9.23 | pKd [4, 13]: 6.33

CCCCGCCTCTTCTGAAGTTAACATGTGCTCC [AD014]
pKd [2, 14]: 7.54 | pKd [4, 14]: 8.71

CCCCGCCTCTTCTGAAGTTAACATGTGCTCCGAGA [AD012]
pKd [2, 14]: 7.54 | pKd [4, 14]: 7.64

CCCCGCCTCTTCTGAAGTTAACATGTGCTCCGAGATGGTA [AD011]
pKd [2, 15]: 8.26 | pKd [4, 15]: 8.02

CCTCTTCTGAAGTTAACATGTGCTCC [AD015]
pKd [2, 16]: 7.43

CCTCTTCTGAAGTTAACATGTGCTCCGAGA [AD013]
pKd [2, 16]: 7.33 | pKd [4, 16]: 8.40

CGCGTGTGTGACCTGAAGACGTATAACTTTTACAGAATCTACA [AD051]
pKd [2, 17]: 8.23 | pKd [4, 17]: 6.29

CTGTACGCGTGTGTGACCTGAAGACGTATAACTTTTACAGAATCTACA [AD052]
pKd [2, 18]: 8.51 | pKd [4, 18]: 8.31

GACTAGCATAAGTCCGGATGGCAGCTTTATGCCG [AD006]
pKd [2, 19]: 6.03 | pKd [4, 19]: 7.11

GAGTGACCGTCTGCCTGACAACAACGAGTGCGAACTGTACTACTTGATAGAGACCCTC [AP023]
pKd [2, 20]: 7.29 | pKd [3, 20]: 7.03

GAGTGACCGTCTGCCTGACAACAACGAGTGCGAACTGTACTACTTGATAGAGACCCTCAGCCACACCACCAGCC [AP013]
pKd [2, 20]: 7.72 | pKd [3, 20]: 7.13

GAGTGACCGTCTGCCTGCCCCGCCTCTTCTGAAGTTAACATGTGCTCCGAGATGGTACAGCCACACCACCAGCC [AD009]
pKd [2, 21]: 9.19 | pKd [4, 21]: 9.29

GAGTGACCGTCTGCCTGGACTAGCATAAGTCCGGATGGCAGCTTTATGCCGACCATCAGCCACACCACCAGCC [AD003]
pKd [2, 22]: 7.89 | pKd [4, 22]: 7.86

GAGTGACCGTCTGCCTGGATATGCCTCTTCTGCAGTTACGGTGTGATCGCCCAATAGCAGCCACACCACCAGCC [TD009]
pKd ([4]; Nap-dU at n (6) positions [Nap-dU at 20,22,26,28,29,31,36,37,42,44,47,55]): 5.61
